Measured values as given in patent US20230285585A1, “TREATMENT OF PULMONARY HYPERTENSION” (PHILOGEN S.P.A., priority 2020, published 2023).
Entries after “also recorded” stand apart in the source; their conditions may differ.

What was measured:
[1] = tested on: Monocrotaline (MCT) induced pulmonary hypertension (PH) in C57BL/6 mice; assay: Right heart catheterization in MCT induced PH mouse model (Example 4); format: in vivo; settings: in contrast to KSF containing control immunocytokines
Excerpt: To induce Pulmonary Hypertension (PH), C57BL/6 mice (bodyweight: 25-30 g) were used. The animals were obtained from ZET facility (Zentrale Experimentelle Tierhaltung) of the University Hospital Jena (UKJ, Jena, Germany). Prior to PH induction, mice were allowed to acclimatize for at least 7 days with ad libitum access to food and water as well as controlled light/dark cycles. In this set of experiments, 50 animals were investigated divided into the following 7 experimental groups: • sham induced controls (n=10) • MCT induced PH (n=8) • MCT induced PH+MACI (n=8) • MCT induced PH+F8mIL9F8 in CrAb format (n=6) • MCT induced PH+KSFmIL9KSF in CrAb format (n=6) • MCT induced PH+F8_(IgG-HC4)-mIL9 (n=6) • MCT induced PH+KSF_(IgG-HC4)-mIL9 (n=6)
For PH induction, the Monocrotaline (MCT, Carl Roth, Germany) method was used.
The sham induced controls were injected with 30 μl NaCl not containing MCT at day 1 (single dose; intraperitoneally, i.p.). […] The other 6 experimental groups were injected with MCT (single dose; intraperitoneally, i.p.; 60 mg/kg body weight; volume 30 μl). Animals in the MCT induced PH+MACI group received the drug (Macitentan, Actelion Pharmaceuticals Ltd.) from day 14 to day 28 (once daily; per os; 15 mg/kg body weight).
Animals in the MCT induced PH+F8mIL9F8 in CrAb format group received F8mIL9F8 3 times on days 14, 16 and 18 (intravenously, i.v.; 200 μg/injection; volume 154 μl). Animals in the MCT induced PH+KSFmIL9KSF in CrAb format group received KSFmIL9KSF 3 times on days 14, 16 and 18 (intravenously, i.v.; 198 μg/injection; volume 182 μl).
Animals in the MCT induced PH+F8_(IgG-HC4)-mIL9 group received F8_(IgG-HC4)-mIL9 3 times on days 14, 16 and 18 (intravenously, i.v.; 261 μg/injection; volume 137 μl). Animals in the MCT induced PH+KSF_(IgG-HC4)-mIL9 group received KSF_IgG-HC4mIL9 3 times on days 14, 16 and 18 (intravenously, i.v.; 258 μg/injection; volume 161 μl).
On day 28 after MCT injection, mice of all experimental groups were deeply anesthetized with a single dose of 100 mg/kg body weight ketamine and 10 mg/kg body weight Xylazin in approximately 60 μl each administered i.p.
Right heart catheterization using a 1.4 F micro conductance pressure-volume catheter (Model SPR-839; Millar Instruments Inc; PowerLab system, ADInstruments Ltd., Oxford, UK) was performed via the right vena jugularis interna to measure the systolic right ventricular pressure and thereby verify the success of the experimental setting. Mice were then sacrificed in deep anesthesia and analgesia to carry out cardiac blood collection after thoracotomy and to harvest the organs.
(§1) Statistical analyses were performed using IBM SPSS statistical software, version 25.0 (IBM SPSS Statistics for Windows. Armonk, N.Y., USA). Data are expressed as mean±standard deviation. […]

[2] = Storage stability (OD280, SEC, SDS-PAGE); format: physicochemical
Protocol: Storage stability of F8(scFv)-mIL9-F8(scFv) was assessed by size exclusion chromatography profile and analytical SDS-PAGE analysis of the protein after: a) incubation at 37° C. for 3, 5 and 7 days, b) incubation at 4° C. for 7 days and c) a series of 3 freeze and thaw cycles.

[3] = tested on: Monocrotaline (MCT) induced pulmonary hypertension (PH) in C57BL/6 mice; assay: Echocardiographic assessment in MCT induced PH mouse model (Example 4); format: in vivo; settings: in contrast to KSF containing control immunocytokines
Protocol: To induce Pulmonary Hypertension (PH), C57BL/6 mice (bodyweight: 25-30 g) were used. The animals were obtained from ZET facility (Zentrale Experimentelle Tierhaltung) of the University Hospital Jena (UKJ, Jena, Germany). Prior to PH induction, mice were allowed to acclimatize for at least 7 days with ad libitum access to food and water as well as controlled light/dark cycles. […]
(§2) Echocardiographic assessment was performed on day 28 using the Vevo 770 Rodent-Ultrasound-System, Visual Sonic, Canada, 17 MHz probe RMV176. […] Body temperature and respiratory rate were continuously monitored. All surrogate parameters of right ventricular (RV) morphology and function were assessed, among others, RV basal and medial diameters (in mm), RV length (in mm), tricuspid annular plane systolic excursion (TAPSE, in mm), right atrial area (RA area, in mm^2) or main pulmonary artery diameter (MPA, in mm).
as §1

[4] = tested on: Monocrotaline (MCT) induced pulmonary hypertension (PH) in C57BL/6 mice; assay: Echocardiographic assessment in MCT induced PH mouse model (Example 3); format: in vivo; settings: in contrast to untargeted KSF(scFv)-mIL9-KSF(scFv)
Excerpt: (§3) Pulmonary Hypertension (PH) was induced in C57BL/6 mice (bodyweight: 25-30 g). The animals were obtained from ZET facility (Zentale Experimentelle Tierhaltung) of the University Hospital Jena (UKJ, Jena, Germany). Prior to PH induction, mice were allowed to acclimatize for at least 7 days with ad libitum access to food and water as well as controlled light/dark cycles. As shown in the overview of the experimental design and treatment schedule (FIG. 6), the following experimental groups were investigated: • sham induced controls (n=6) • MCT induced PH (n=8) • MCT induced PH+MACI (n=7) • MCT induced PH+F8(scFv)-mIL9-F8(scFv) (also named F8-IL9) (n=6) • MCT induced PH+KSF(scFv)-mIL9-KSF(scFv) (also named KSF-IL9) (n=6)
For PH induction, the Monocrotaline (MCT) method was used. […]
as §2, with “28 (FIG. 6)” for “28”, “and RV fractional area change (FAC,” for “tricuspid annular plane systolic excursion (TAPSE,”, “%).” for “mm), right atrial area (RA area, in mm^2) or main pulmonary artery diameter (MPA, in mm).”
as §1

[5] = molecular target: T1, recombinant fibronectin 11A12 domain (EDA) (Homo sapiens, UniProt P02751); assay: Biacore surface plasmon resonance binding analysis; settings: SPR, BIAcore X100, CM5 chip coated with recombinant fibronectin 11A12 domain
T1 construct: recombinant fibronectin 11A12 domain
Protocol: Binding affinity was determined by surface plasmon resonance using a BIAcore X100 instrument using a CM5 chip coated with recombinant fibronectin 11A12 domain. Samples were injected as serial-dilution, using a concentration range from […] to 125 nM.

[6] = Melting temperature (Protein Thermal Shift kit); format: physicochemical
Protocol: The melting temperature of the different mIL9 conjugates was determined using a StepOne real-Time PCR system in combination with the Protein Thermal Shift kit.

[7] = tested on: Monocrotaline (MCT) induced pulmonary hypertension (PH) in C57BL/6 mice; assay: Right heart catheterization in MCT induced PH mouse model (Example 3); format: in vivo
Excerpt: as §3
For PH induction, the Monocrotaline (MCT) method was used.
The sham induced controls were injected with 30 μl NaCl not containing MCT at day 1 (single dose; intraperitoneally, i.p.). […] The other 4 experimental groups were injected with MCT to induce PH (single dose; intraperitoneally, i.p.; 60 mg/kg body weight; volume 30 μl). Animals in the MCT induced PH+MACI group received the drug (Macitentan) from day 14 to day 28 (once daily; per os; 15 mg/kg body weight). […]
as §1

T1 sequence (P02751 1629-1905 limits assumed): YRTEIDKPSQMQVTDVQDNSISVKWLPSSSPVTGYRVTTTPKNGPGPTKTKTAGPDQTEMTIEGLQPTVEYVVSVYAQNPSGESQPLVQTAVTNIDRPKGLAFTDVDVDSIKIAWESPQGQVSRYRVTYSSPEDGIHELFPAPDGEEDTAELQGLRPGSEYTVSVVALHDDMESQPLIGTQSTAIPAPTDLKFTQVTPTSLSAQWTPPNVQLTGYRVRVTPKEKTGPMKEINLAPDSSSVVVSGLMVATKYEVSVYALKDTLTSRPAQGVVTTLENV

B1: F8(scFv)-mIL9-F8(scFv): murine IL9 conjugated at N- and C-terminus to an F8 scFv via 10 amino acid linker, CrAb format; SEQ ID NO: 17 (protein)
chain: EVQLLESGGGLVQPGGSLRLSCAASGFTFSLFTMSWVRQAPGKGLEWVSAISGSGGSTYYADSVKGRFTISRDNSKNTLYLQMNSLRAEDTAVYYCAKSTHLYLFDYWGQGTLVTVSSGGGGSGGGGSGGGGEIVLTQSPGTLSLSPGERATLSCRASQSVSMPFLAWYQQKPGQAPRLLIYGASSRATGIPDRFSGSGSGTDFTLTISRLEPEDFAVYYCQQMRGRPPTFGQGTKVEIKSGGSGSGGGGQRCSTTWGIRDTNYLIENLKDDPPSKCSCSGNVTSCLCLSVPTDDCTTPCYREGLLQLTNATQKSRLLPVFHRVKRIVEVLKNITCPSFSCEKPCNQTMAGNTLSFLKSLLGTFQKTEMQRQKSRPSGGSGSGGGGEVQLLESGGGLVQPGGSLRLSCAASGFTFSLFTMSWVRQAPGKGLEWVSAISGSGGSTYYADSVKGRFTISRDNSKNTLYLQMNSLRAEDTAVYYCAKSTHLYLFDYWGQGTLVTVSSGGGGSGGGGSGGGGEIVLTQSPGTLSLSPGERATLSCRASQSVSMPFLAWYQQKPGQAPRLLIYGASSRATGIPDRFSGSGSGTDFTLTISRLEPEDFAVYYCQQMRGRPPTFGQGTKVEIK
modifications: F8(scFv)-mIL9-F8(scFv) (“CrAb” format)
pressure values in the right ventricle, RVPsys (result in words) [1]: significantly reduced | stability to freeze and thawing (protein concentration, SEC profile, SDS-PAGE) ([2]; 3 cycles of freeze and thawing): no loss of concentration, no changes in the size exclusion profile or SDS-PAGE analysis; also recorded: no loss of concentration | thermal stability over time (protein concentration, SEC profile, SDS-PAGE) ([2]; incubated at 4° for up to 7 days): no loss of concentration, no changes in the size exclusion profile or SDS-PAGE analysis; also recorded: no loss of concentration | thermal stability over time (protein concentration, SEC profile, SDS-PAGE) ([2]; incubated at 37° C. for up to 7 days): no loss of concentration, no changes in the size exclusion profile or SDS-PAGE analysis; also recorded: no loss of concentration | echocardiographic signs of right ventricular load and dysfunction (result in words) [3]: significantly improved a variety | echocardiographic signs of right ventricular load and dysfunction (result in words) [4]: significantly improved the majority | apparent KD [5]: in the nM range | increase in melting temperature compared with diabody formats F8(db)-mIL9 and mIL9-F8(db) [6]: ~3 °C | treatment effects relative to MACI (result in words) ([7]; MACI 15 mg/kg per os once daily day 14 to 28): at least comparable | pressure values in the right ventricle (result in words) ([7]; in contrast to untargeted KSF(scFv)-mIL9-KSF(scFv), 200 μg/injection i.v. days 14, 16, 18): significantly reduce
